Columns and labels:
Details in all cases: both partners purified
[1] = target: T1, GABAA receptor-associated protein (GABARAP) (mouse, UniProt Q9DCD6 1-117); test: ITC; VP-ITC at 25 °C; 50 mM Tris pH 7.8, 100 mM NaCl, 1 mM EDTA, 1 mM DTT; γ2 subunit protein or peptide (100-200 μM) injected into GABARAP, GABARAPL1 or AP2 (10-20 μM) in the cell; one-site binding model
T1 construct: GABARAP, mouse, UniProt Q9DCD6; also called GABARAP WT; source: E. coli BL21 (DE3), purified (nickel-NTA, size exclusion)
T1 sequence (Q9DCD6 whole entry): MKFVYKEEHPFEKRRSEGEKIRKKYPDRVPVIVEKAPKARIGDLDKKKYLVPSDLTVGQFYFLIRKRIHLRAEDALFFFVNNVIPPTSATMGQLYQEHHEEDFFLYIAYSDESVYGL

[2] = target: T1, GABAA receptor-associated protein …; test: as above; remark: listed apart in the source
[3] = target: T2, clathrin adaptor protein AP2 (AP2 μ1 subunit) (rat, UniProt P84092 158-435); test: as above
T2 construct: AP2 μ1 subunit as printed, rat, UniProt P84092; the limits rest on the primer list; also called AP2 WT; source: E. coli BL21 (DE3), purified (nickel-NTA, size exclusion)
T2 sequence (looked up): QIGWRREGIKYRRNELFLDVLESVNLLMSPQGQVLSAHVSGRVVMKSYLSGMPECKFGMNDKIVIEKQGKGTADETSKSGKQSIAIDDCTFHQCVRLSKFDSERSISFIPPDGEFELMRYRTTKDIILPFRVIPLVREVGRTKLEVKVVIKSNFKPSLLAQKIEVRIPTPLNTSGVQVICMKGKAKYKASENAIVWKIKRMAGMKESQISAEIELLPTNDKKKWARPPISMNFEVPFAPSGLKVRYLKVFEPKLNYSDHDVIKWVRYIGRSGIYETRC

GABARAPL1 [4] = target: T3, GABARAPL1 (mouse, UniProt Q8R3R8 1-117); test: as above
T3 construct: GABARAPL1, mouse, UniProt Q8R3R8; also called GABARAPL1 WT; source: E. coli BL21 (DE3), purified (nickel-NTA, size exclusion)

[5] = target: T4, GABAAR-associated protein (GABARAP) (mouse, UniProt Q9DCD6 1-117); test: ITC; VP-ITC, 25 °C; 50 mM Tris pH 7.8, 100 mM NaCl, 1 mM EDTA, 1 mM DTT; γ2 subunit protein or peptide (100–200 μM) injected into GABARAP, GABARAPL1 or AP2 (10–20 μM) in the cell; one-site binding model
T4 construct: GABARAP, mouse, UniProt Q9DCD6; the thioredoxin-His6 tag was removed 'when needed'; also called GABARAP WT; source: E. coli BL21 (DE3), purified (nickel-NTA, size exclusion)
T4 sequence (Q9DCD6 whole entry): as the sequence (Q9DCD6 whole entry) above

GABARAPL1 [6] = target: T5, GABARAPL1 (mouse, UniProt Q8R3R8 1-117); test: as above
T5 construct: GABARAPL1, mouse, UniProt Q8R3R8; source: E. coli BL21 (DE3), purified (nickel-NTA, size exclusion)

GABARAP E17A = target: T6, GABARAP E17A (mouse, UniProt Q9DCD6 1-117, E17A); test: as above
T6 construct: GABARAP, mouse, UniProt Q9DCD6, E17A; source: E. coli BL21 (DE3), purified (nickel-NTA, size exclusion)
T6 sequence (Q9DCD6 whole entry E17A): as the sequence (Q9DCD6 whole entry) above, with E17A counted along it

GABARAP K66E = target: T7, GABARAP K66E (mouse, UniProt Q9DCD6 1-117, K66E); test: as above
T7 construct: GABARAP, mouse, UniProt Q9DCD6, K66E; source: E. coli BL21 (DE3), purified (nickel-NTA, size exclusion)
T7 sequence (Q9DCD6 whole entry K66E): as the sequence (Q9DCD6 whole entry) above, with K66E counted along it

[7] = target: T8, clathrin adaptor protein AP2 (AP2 μ1 subunit as printed) (rat, UniProt P84092 1-435); test: as above
T8 construct: AP2 μ subunit (printed 'AP2 μ1 subunit'), rat, UniProt P84092; the full-length gene was amplified and shorter fragments were generated; Only the μ subunit is named as cloned; the text calls the protein 'AP2'; source: E. coli BL21 (DE3), purified (nickel-NTA, size exclusion)
T8 sequence (looked up): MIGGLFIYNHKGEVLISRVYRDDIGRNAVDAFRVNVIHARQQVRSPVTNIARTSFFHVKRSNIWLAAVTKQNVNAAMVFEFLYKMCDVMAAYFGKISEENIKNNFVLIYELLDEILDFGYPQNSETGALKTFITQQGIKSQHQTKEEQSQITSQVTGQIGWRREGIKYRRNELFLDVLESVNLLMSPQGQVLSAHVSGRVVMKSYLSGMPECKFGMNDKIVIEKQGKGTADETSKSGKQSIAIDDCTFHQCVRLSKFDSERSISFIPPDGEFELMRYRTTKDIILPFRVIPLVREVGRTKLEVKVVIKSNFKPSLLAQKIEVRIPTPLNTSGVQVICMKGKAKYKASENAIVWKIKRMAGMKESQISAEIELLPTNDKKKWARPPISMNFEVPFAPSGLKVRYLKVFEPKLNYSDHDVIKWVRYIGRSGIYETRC

[8] = target: T4, GABAAR-associated protein (GABARAP); test: ITC; giant ankyrin peptides and GABARAP, compared against γ2-GIM

B1: GABAA receptor γ2 subunit 375-442 (full length TM3-TM4 ICD) (domain or fragment, mouse, UniProt P22723-2 375-442, looked up)
chain: PAPTIDIRPRSATIQMNNATHLQERDEEYGYECLDGKDCASFFCCFEDCRTGAWRHGRIHIRIAKMDS
notes: GABAA receptor γ2 subunit, mouse, UniProt P22723-2, residues 375-442 (TM3-TM4 intracellular domain); also called GABAA receptor γ2 375-442; source: E. coli BL21 (DE3), purified (nickel-NTA, size exclusion)
[1]
  stoichiometry N: 0.53

B2: GABAA receptor γ2-GIM Y403E (peptide, UniProt P22723-2 398-415, looked up)
chain: ERDEEEGYECLDGKDCAS
notes: source: E. coli BL21 (DE3), purified (nickel-NTA, size exclusion)
[2]
  Kd: 1 ± 0.1 µM
[3]
  Kd: 2.46 ± 0.22 µM

B3: GABAA receptor γ2-GIM E402T (peptide, UniProt P22723-2 398-415, looked up)
chain: ERDETYGYECLDGKDCAS
notes: as for B2
[3]
  Kd: 0.56 ± 0.02 µM

B4: GABAA receptor γ2-GIM E406R (peptide, UniProt P22723-2 398-415, looked up)
chain: ERDEEYGYRCLDGKDCAS
notes: as for B2
[3]
  Kd: 0.69 ± 0.06 µM

B5: GABAA receptor γ2-GIM L408Q (peptide, UniProt P22723-2 398-415, looked up)
chain: ERDEEYGYECQDGKDCAS
notes: as for B2
[3]
  Kd: > 50 µM

B6: GABAA receptor γ2 subunit 375-424 (domain or fragment, mouse, UniProt P22723-2 375-424, looked up)
chain: PAPTIDIRPRSATIQMNNATHLQERDEEYGYECLDGKDCASFFCCFEDCR
notes: as for B2
[1]
  stoichiometry N: 0.92

B7: GABAA receptor γ2 subunit 398-424 (domain or fragment, mouse)
chain: ERDEEYGYECLDGKDCASFFCCFEDCR
notes: as for B2
[1]
  Kd: 5 µM
  stoichiometry N: 0.92

B8: GABAA receptor γ2 subunit 404-442 (domain or fragment, mouse)
chain: GYECLDGKDCASFFCCFEDCRTGAWRHGRIHIRIAKMDS
notes: GABAA receptor γ2 subunit, mouse, UniProt P22723-2, residues 404-442; also called GABAA receptor γ2 404-442; source: E. coli BL21 (DE3), purified (nickel-NTA, size exclusion)
[1]
  Kd: 30 µM
  stoichiometry N: 0.55

B9: GABAA receptor γ2 subunit GIM (GABARAP interacting motif, 398-415) (peptide)
chain: ERDEEYGYECLDGKDCAS
notes: also called γ2-GIM; source: E. coli BL21 (DE3), purified (nickel-NTA, size exclusion)
GABARAPL1 [4]
  Kd: 5.7 µM
  stoichiometry N: 1.23

B10: full length TM3–TM4 ICD (residues 375–442) of the GABAA receptor γ2 subunit (domain or fragment, mouse, UniProt P22723-2 375-442, looked up)
chain: PAPTIDIRPRSATIQMNNATHLQERDEEYGYECLDGKDCASFFCCFEDCRTGAWRHGRIHIRIAKMDS
notes: GABAA receptor γ2 subunit, mouse, UniProt P22723-2, residues 375-442; also called TM3–TM4 intracellular loop; source: E. coli BL21 (DE3), purified (nickel-NTA, size exclusion)
[5]
  Kd: ~8 µM

B11: GABAAR γ2 subunit GIM (GABARAP interacting motif, 398–415) (peptide, UniProt P22723-2 398-415, looked up)
chain: ERDEEYGYECLDGKDCAS
notes: as for B9
GABARAPL1 [6]
  Kd: ~6.6 µM
GABARAP E17A
  binding result: binds
GABARAP K66E
  fold weakening against GABARAP WT: ~4 fold

B12: γ2-GIM E402T variant (peptide, UniProt P22723-2 398-415, looked up)
chain: ERDETYGYECLDGKDCAS
notes: as for B2
[5]
  Kd: 8.4 µM

B13: γ2-GIM Y403E variant (phosphomimic mutation) (peptide, UniProt P22723-2 398-415, looked up)
chain: ERDEEEGYECLDGKDCAS
notes: as for B2
[5]
  fold increase of affinity against γ2-GIM WT: ~5 fold
[7]
  fold decrease of affinity against γ2-GIM WT: ~10 fold

## PEDDWTRFSSEEIREARQAAASHAPS [AnkG-ER peptide]
[8]
  fold stronger affinity for GABARAP than γ2-GIM: ~1000 fold

Reference: article PMC7803741, “Structural basis of GABARAP-mediated GABAA receptor trafficking and functions on GABAergic synaptic transmission” (Nature Communications, 2021)
